Measured values published in US5831013, “Capsid polypeptides and use to inhibit viral packaging” (The Research Foundation of State University of New York, dated 1998).

T1: ScVLa capsid protein Cap, full size (697 amino acids) (ScVLa virus of Saccharomyces cerevisiae)
T1 chain: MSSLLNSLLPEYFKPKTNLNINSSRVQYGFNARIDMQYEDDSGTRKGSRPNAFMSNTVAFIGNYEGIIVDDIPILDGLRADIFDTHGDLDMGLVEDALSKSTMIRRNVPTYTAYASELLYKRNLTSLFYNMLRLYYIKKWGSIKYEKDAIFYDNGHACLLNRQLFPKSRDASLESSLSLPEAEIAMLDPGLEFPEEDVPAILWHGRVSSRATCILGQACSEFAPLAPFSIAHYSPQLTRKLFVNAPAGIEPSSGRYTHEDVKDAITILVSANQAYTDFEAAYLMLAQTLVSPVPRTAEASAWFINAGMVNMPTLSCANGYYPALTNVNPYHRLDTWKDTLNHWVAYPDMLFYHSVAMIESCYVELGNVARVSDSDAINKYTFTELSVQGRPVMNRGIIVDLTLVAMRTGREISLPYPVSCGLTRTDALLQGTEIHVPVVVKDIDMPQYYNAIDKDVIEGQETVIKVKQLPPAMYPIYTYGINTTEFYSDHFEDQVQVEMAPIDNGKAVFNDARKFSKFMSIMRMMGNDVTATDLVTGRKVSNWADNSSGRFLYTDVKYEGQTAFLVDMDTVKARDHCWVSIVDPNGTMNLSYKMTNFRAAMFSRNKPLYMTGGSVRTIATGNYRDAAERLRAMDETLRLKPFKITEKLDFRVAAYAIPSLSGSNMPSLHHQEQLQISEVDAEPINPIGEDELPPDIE


Biological target: T1, ScVLa capsid protein Cap, full size …
Assay: cell-based or functional assay

Binder | Curing (%) of ScVLa
La Cap N-terminal fragment of pGLa1d5 (aa 1-418) (other) MSSLLNSLLPEYFKPKTNLNINSSRVQYGFNARIDMQYEDDSGTRKGSRPNAFMSNTVAFIGNYEGIIVDDIPILDGLRADIFDTHGDLDMGLVEDALSKSTMIRRNVPTYTAYASELLYKRNLTSLFYNMLRLYYIKKWGSIKYEKDAIFYDNGHACLLNRQLFPKSRDASLESSLSLPEAEIAMLDPGLEFPEEDVPAILWHGRVSSRATCILGQACSEFAPLAPFSIAHYSPQLTRKLFVNAPAGIEPSSGRYTHEDVKDAITILVSANQAYTDFEAAYLMLAQTLVSPVPRTAEASAWFINAGMVNMPTLSCANGYYPALTNVNPYHRLDTWKDTLNHWVAYPDMLFYHSVAMIESCYVELGNVARVSDSDAINKYTFTELSVQGRPVMNRGIIVDLTLVAMRTGREISLPYPV | < 10%
La Cap N-terminal fragment of nonsense mutant pGLa1m4 (I443O, aa 1-442) (other) MSSLLNSLLPEYFKPKTNLNINSSRVQYGFNARIDMQYEDDSGTRKGSRPNAFMSNTVAFIGNYEGIIVDDIPILDGLRADIFDTHGDLDMGLVEDALSKSTMIRRNVPTYTAYASELLYKRNLTSLFYNMLRLYYIKKWGSIKYEKDAIFYDNGHACLLNRQLFPKSRDASLESSLSLPEAEIAMLDPGLEFPEEDVPAILWHGRVSSRATCILGQACSEFAPLAPFSIAHYSPQLTRKLFVNAPAGIEPSSGRYTHEDVKDAITILVSANQAYTDFEAAYLMLAQTLVSPVPRTAEASAWFINAGMVNMPTLSCANGYYPALTNVNPYHRLDTWKDTLNHWVAYPDMLFYHSVAMIESCYVELGNVARVSDSDAINKYTFTELSVQGRPVMNRGIIVDLTLVAMRTGREISLPYPVSCGLTRTDALLQGTEIHVPVVVKD | 100%
La Cap N-terminal fragment of pGLa1d6 (aa 1-401) (other) MSSLLNSLLPEYFKPKTNLNINSSRVQYGFNARIDMQYEDDSGTRKGSRPNAFMSNTVAFIGNYEGIIVDDIPILDGLRADIFDTHGDLDMGLVEDALSKSTMIRRNVPTYTAYASELLYKRNLTSLFYNMLRLYYIKKWGSIKYEKDAIFYDNGHACLLNRQLFPKSRDASLESSLSLPEAEIAMLDPGLEFPEEDVPAILWHGRVSSRATCILGQACSEFAPLAPFSIAHYSPQLTRKLFVNAPAGIEPSSGRYTHEDVKDAITILVSANQAYTDFEAAYLMLAQTLVSPVPRTAEASAWFINAGMVNMPTLSCANGYYPALTNVNPYHRLDTWKDTLNHWVAYPDMLFYHSVAMIESCYVELGNVARVSDSDAINKYTFTELSVQGRPVMNRGIIVDL | < 10%
La Cap N-terminal fragment of pGLa1d1 (aa 1-502) (other) MSSLLNSLLPEYFKPKTNLNINSSRVQYGFNARIDMQYEDDSGTRKGSRPNAFMSNTVAFIGNYEGIIVDDIPILDGLRADIFDTHGDLDMGLVEDALSKSTMIRRNVPTYTAYASELLYKRNLTSLFYNMLRLYYIKKWGSIKYEKDAIFYDNGHACLLNRQLFPKSRDASLESSLSLPEAEIAMLDPGLEFPEEDVPAILWHGRVSSRATCILGQACSEFAPLAPFSIAHYSPQLTRKLFVNAPAGIEPSSGRYTHEDVKDAITILVSANQAYTDFEAAYLMLAQTLVSPVPRTAEASAWFINAGMVNMPTLSCANGYYPALTNVNPYHRLDTWKDTLNHWVAYPDMLFYHSVAMIESCYVELGNVARVSDSDAINKYTFTELSVQGRPVMNRGIIVDLTLVAMRTGREISLPYPVSCGLTRTDALLQGTEIHVPVVVKDIDMPQYYNAIDKDVIEGQETVIKVKQLPPAMYPIYTYGINTTEFYSDHFEDQVQVEMAPI | 100%
La Cap N-terminal fragment of pGLa1d2 (aa 1-476) (other) MSSLLNSLLPEYFKPKTNLNINSSRVQYGFNARIDMQYEDDSGTRKGSRPNAFMSNTVAFIGNYEGIIVDDIPILDGLRADIFDTHGDLDMGLVEDALSKSTMIRRNVPTYTAYASELLYKRNLTSLFYNMLRLYYIKKWGSIKYEKDAIFYDNGHACLLNRQLFPKSRDASLESSLSLPEAEIAMLDPGLEFPEEDVPAILWHGRVSSRATCILGQACSEFAPLAPFSIAHYSPQLTRKLFVNAPAGIEPSSGRYTHEDVKDAITILVSANQAYTDFEAAYLMLAQTLVSPVPRTAEASAWFINAGMVNMPTLSCANGYYPALTNVNPYHRLDTWKDTLNHWVAYPDMLFYHSVAMIESCYVELGNVARVSDSDAINKYTFTELSVQGRPVMNRGIIVDLTLVAMRTGREISLPYPVSCGLTRTDALLQGTEIHVPVVVKDIDMPQYYNAIDKDVIEGQETVIKVKQLPPAMYPI | 100%
La Cap fragment of pGLa1d8 (aa 98-443) (other) LSKSTMIRRNVPTYTAYASELLYKRNLTSLFYNMLRLYYIKKWGSIKYEKDAIFYDNGHACLLNRQLFPKSRDASLESSLSLPEAEIAMLDPGLEFPEEDVPAILWHGRVSSRATCILGQACSEFAPLAPFSIAHYSPQLTRKLFVNAPAGIEPSSGRYTHEDVKDAITILVSANQAYTDFEAAYLMLAQTLVSPVPRTAEASAWFINAGMVNMPTLSCANGYYPALTNVNPYHRLDTWKDTLNHWVAYPDMLFYHSVAMIESCYVELGNVARVSDSDAINKYTFTELSVQGRPVMNRGIIVDLTLVAMRTGREISLPYPVSCGLTRTDALLQGTEIHVPVVVKDI | < 10%
La Cap fragment of pGLa1d7 (aa 6-443) (other) NSLLPEYFKPKTNLNINSSRVQYGFNARIDMQYEDDSGTRKGSRPNAFMSNTVAFIGNYEGIIVDDIPILDGLRADIFDTHGDLDMGLVEDALSKSTMIRRNVPTYTAYASELLYKRNLTSLFYNMLRLYYIKKWGSIKYEKDAIFYDNGHACLLNRQLFPKSRDASLESSLSLPEAEIAMLDPGLEFPEEDVPAILWHGRVSSRATCILGQACSEFAPLAPFSIAHYSPQLTRKLFVNAPAGIEPSSGRYTHEDVKDAITILVSANQAYTDFEAAYLMLAQTLVSPVPRTAEASAWFINAGMVNMPTLSCANGYYPALTNVNPYHRLDTWKDTLNHWVAYPDMLFYHSVAMIESCYVELGNVARVSDSDAINKYTFTELSVQGRPVMNRGIIVDLTLVAMRTGREISLPYPVSCGLTRTDALLQGTEIHVPVVVKDI | < 10%
La Cap N-terminal fragment of pGLa1d4 (aa 1-428) (other) MSSLLNSLLPEYFKPKTNLNINSSRVQYGFNARIDMQYEDDSGTRKGSRPNAFMSNTVAFIGNYEGIIVDDIPILDGLRADIFDTHGDLDMGLVEDALSKSTMIRRNVPTYTAYASELLYKRNLTSLFYNMLRLYYIKKWGSIKYEKDAIFYDNGHACLLNRQLFPKSRDASLESSLSLPEAEIAMLDPGLEFPEEDVPAILWHGRVSSRATCILGQACSEFAPLAPFSIAHYSPQLTRKLFVNAPAGIEPSSGRYTHEDVKDAITILVSANQAYTDFEAAYLMLAQTLVSPVPRTAEASAWFINAGMVNMPTLSCANGYYPALTNVNPYHRLDTWKDTLNHWVAYPDMLFYHSVAMIESCYVELGNVARVSDSDAINKYTFTELSVQGRPVMNRGIIVDLTLVAMRTGREISLPYPVSCGLTRTDAL | 50%
La Cap N-terminal fragment of nonsense mutant pGLa1m3 (K506O, aa 1-505) (other) MSSLLNSLLPEYFKPKTNLNINSSRVQYGFNARIDMQYEDDSGTRKGSRPNAFMSNTVAFIGNYEGIIVDDIPILDGLRADIFDTHGDLDMGLVEDALSKSTMIRRNVPTYTAYASELLYKRNLTSLFYNMLRLYYIKKWGSIKYEKDAIFYDNGHACLLNRQLFPKSRDASLESSLSLPEAEIAMLDPGLEFPEEDVPAILWHGRVSSRATCILGQACSEFAPLAPFSIAHYSPQLTRKLFVNAPAGIEPSSGRYTHEDVKDAITILVSANQAYTDFEAAYLMLAQTLVSPVPRTAEASAWFINAGMVNMPTLSCANGYYPALTNVNPYHRLDTWKDTLNHWVAYPDMLFYHSVAMIESCYVELGNVARVSDSDAINKYTFTELSVQGRPVMNRGIIVDLTLVAMRTGREISLPYPVSCGLTRTDALLQGTEIHVPVVVKDIDMPQYYNAIDKDVIEGQETVIKVKQLPPAMYPIYTYGINTTEFYSDHFEDQVQVEMAPIDNG | 100%
